# T1: FoxH1 FH domain (species not stated) (UniProt O75593)
# T1 sequence: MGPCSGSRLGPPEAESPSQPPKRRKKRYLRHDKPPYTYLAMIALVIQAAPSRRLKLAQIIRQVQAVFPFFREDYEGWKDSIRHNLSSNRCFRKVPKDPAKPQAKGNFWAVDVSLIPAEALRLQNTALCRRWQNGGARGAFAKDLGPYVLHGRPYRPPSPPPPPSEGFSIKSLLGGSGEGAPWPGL
# T2: hFoxA2 FH (Homo sapiens) (UniProt Q9Y261)
# T2 sequence: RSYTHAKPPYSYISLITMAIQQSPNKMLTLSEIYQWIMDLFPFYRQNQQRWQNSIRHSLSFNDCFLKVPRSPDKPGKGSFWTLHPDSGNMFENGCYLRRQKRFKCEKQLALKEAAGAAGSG
# T3: dFoxH1 FH (Danio rerio, UniProt Q9I9E1 86-210)
# T3 sequence: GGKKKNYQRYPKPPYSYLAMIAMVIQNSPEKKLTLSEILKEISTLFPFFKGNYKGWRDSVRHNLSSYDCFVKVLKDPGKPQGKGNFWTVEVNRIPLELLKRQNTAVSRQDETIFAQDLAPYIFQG
# T4: hFoxA2 FH (Homo sapiens, UniProt Q9Y261 153-273)
# T4 sequence: T2 sequence
# B1: dGSC-GG-16a (dsDNA)
# DNA 1: AGATTGTGGATTGAGA
# DNA 2: TCTCAATCCACAATCT
# B2: TT forkhead DNA, 16 bp (EMSA) (dsDNA)
# DNA 1: AGATTGTTTACTGAGA
# DNA 2: TCTCAGTAAACAATCT
# B3: dGSC-TT-16a (dsDNA)
# DNA 1: AGATTGTTTATTGAGA
# DNA 2: TCTCAATAAACAATCT
# B4: FKH-TTACT-GSCflank (dsDNA)
# DNA 1: AGATTGTTTACTGAGA
# DNA 2: TCTCAGTAAACAATCT
# B5: Gsc167 linear DNA (dsDNA)
# DNA 1: ACAAGGCCTGAAAAGAGATTGTGGATTGCGAATTAATGAAATTAACCTAATCTTTTCCATTCGGCAGCCGGGCCGCGGGCCGGCCGAGCTGGGCGGGCGGCCTAATTGCCTTGGTTAATCTCATTAATTCCTTTGTGCCGCCGCAGTTAACAACTCCCTCCGCCCGA
# DNA 2: TCGGGCGGAGGGAGTTGTTAACTGCGGCGGCACAAAGGAATTAATGAGATTAACCAAGGCAATTAGGCCGCCCGCCCAGCTCGGCCGGCCCGCGGCCCGGCTGCCGAATGGAAAAGATTAGGTTAATTTCATTAATTCGCAATCCACAATCTCTTTTCAGGCCTTGT
# B6: dGSC-GT-16a (dsDNA)
# DNA 1: AGATTGTGTATTGAGA
# DNA 2: TCTCAATACACAATCT
# Legend:
# [1] = target: T1, FoxH1 FH domain (species not stated); experiment: BLI; details: BLI: 20 mM Tris pH 7.6, 100 mM NaCl, 2 mM DTT, 0.02% Tween-20, 0.01% BSA, 25 C; EMSA: 100 mM Tris, 10% glycerol, 7.5 nM Cy5-DNA, 4 C
# hFoxA2 FH (Homo sapiens) = target: T2, hFoxA2 FH (Homo sapiens); experiment: BLI; details: BLI: 20 mM Tris pH 7.6, 100 mM NaCl, 2 mM DTT, 0.02% Tween-20, 0.01% BSA, 25 C; EMSA: 100 mM Tris, 10% glycerol, 7.5 nM Cy5-DNA, 4 C
# dFoxH1 FH [2] = target: T3, dFoxH1 FH; experiment: X-ray; K+; BLI: 20 mM Tris pH 7.6, 100 mM NaCl, 2 mM DTT, 0.02% Tween-20, 0.01% BSA, 25 C; EMSA: 100 mM Tris, 10% glycerol, 7.5 nM Cy5-DNA, 4 C; details: protein: recombinant; tags: His-SUMO removed (Ulp1); blunt
# hFoxA2 FH [3] = target: T4, hFoxA2 FH; experiment: EMSA; BLI: 20 mM Tris pH 7.6, 100 mM NaCl, 2 mM DTT, 0.02% Tween-20, 0.01% BSA, 25 C; EMSA: 100 mM Tris, 10% glycerol, 7.5 nM Cy5-DNA, 4 C; details: protein: recombinant; tags: His-SUMO removed (Ulp1); label: 5'-Cy5
# dFoxH1 FH [4] = target: T3, dFoxH1 FH; experiment: X-ray; BLI: 20 mM Tris pH 7.6, 100 mM NaCl, 2 mM DTT, 0.02% Tween-20, 0.01% BSA, 25 C; EMSA: 100 mM Tris, 10% glycerol, 7.5 nM Cy5-DNA, 4 C; details: protein: recombinant; tags: His-SUMO removed (Ulp1); blunt
# hFoxA2 FH [5] = target: T4, hFoxA2 FH; experiment: as above; details: protein: recombinant; tags: His-SUMO removed (Ulp1); blunt
# hFoxA2 FH [6] = target: T4, hFoxA2 FH; experiment: BLI; BLI: 20 mM Tris pH 7.6, 100 mM NaCl, 2 mM DTT, 0.02% Tween-20, 0.01% BSA, 25 C; EMSA: 100 mM Tris, 10% glycerol, 7.5 nM Cy5-DNA, 4 C; details: protein: recombinant; tags: His-SUMO removed (Ulp1); label: 5'-biotin (BLI)
molecule,measurement,setting,value
ACAAGGCCTGAAAAGAGATTGTGGATTGCGAATTAATGAAATTAACCTAATCTTTTCCATTCGGCAGCCGGGCCGCGGGCCGGCCGAGCTGGGCGGGCGGCCTAATTGCCTTGGTTAATCTCATTAATTCCTTTGTGCCGCCGCAGTTAACAACTCCCTCCGCCCGA (double strand) [Gsc167 linear DNA],Kd,[1],13 nM
ACAAGGCCTGAAAAGAGATTGTGGATTGCGAATTAATGAAATTAACCTAATCTTTTCCATTCGGCAGCCGGGCCGCGGGCCGGCCGAGCTGGGCGGGCGGCCTAATTGCCTTGGTTAATCTCATTAATTCCTTTGTGCCGCCGCAGTTAACAACTCCCTCCGCCCGA (double strand) [Gsc167 nucleosome],Kd,[1],5 nM
same,Kd,hFoxA2 FH (Homo sapiens),30 nM
B1,binding result,dFoxH1 FH [2],binds
B2,binding result,hFoxA2 FH [3],binds
B3,binding result,dFoxH1 FH [4],binds
same,binding result,hFoxA2 FH [5],binds
B4,binding result,dFoxH1 FH [4],binds
same,binding result,hFoxA2 FH [5],binds
B5,Kd,hFoxA2 FH [6],800 nM
B6,binding result,dFoxH1 FH [2],binds

# From publication PMC9701222, “Molecular basis for DNA recognition by the maternal pioneer transcription factor FoxH1”
